Data published in paper PMC11128199 (JCI Insight, 2024).

Biological target: T1, stabilized SARS-CoV-2 Omicron S ECD HexaPro (SARS-CoV-2 Omicron BA.1, stabilised)
T1 construct: also called prefusion Omicron BA.1 S trimer; BA.1 S
Test: cryo-EM structure
Conditions: both partners purified

B1: 58G6 Fab (Fab, V domains shown)
VH: QMQLVQSGPEVKKPGTSVKVSCKASGFTFSSSAVQWVRQARGQHLEWIGWIVVGSGNTNYAQKFQERVTLTRDMSTRTAYMELSSLRSEDTAVYYCAAPNCNSTTCHDGFDIWGQGTVVTVSS
VL: EIVLTQSPGTLSLSPGERATLSCRASQSVRSSYLGWYQQKPGQAPRLLIYGASSRATGIPDRFSGSGSGTDFTLTISRLESEDFAVYYCQQYDNSPWTFGQGTKVEIK
stoichiometry N: 1 Fabs per S trimer
